Data taken from paper PMC6688830, “A Ubiquitin-Binding Domain that Binds a Structural Fold Distinct from that of Ubiquitin” (Structure(London, England:1993), 2019).

Molecular target: T1, KAP1 S33-K434 (human, UniProt Q13263 33-434)
T1 construct: KAP1 (TRIM28), human, UniProt Q13263, residues S33-K434 (RBCC domain); The crystal structures of shorter RBCC constructs show an antiparallel homodimer; also called KAP1 RBCC (S33-K434); KAP1 RBCC; source: E. coli BL-21 CodonPlus (DE3)-RP, purified (Ni-NTA, Ulp1, Mono Q)
Assay: co-IP; purified SMARCAD1 fragments (FLAG-CUE1,2, FLAG-CUE1) and KAP1 RBCC, 9.6μg each in 240μL, 4°C 1 hour; anti-FLAG M2 affinity gel 3 hours
Details: both partners purified

T1 sequence (Q13263 33-434): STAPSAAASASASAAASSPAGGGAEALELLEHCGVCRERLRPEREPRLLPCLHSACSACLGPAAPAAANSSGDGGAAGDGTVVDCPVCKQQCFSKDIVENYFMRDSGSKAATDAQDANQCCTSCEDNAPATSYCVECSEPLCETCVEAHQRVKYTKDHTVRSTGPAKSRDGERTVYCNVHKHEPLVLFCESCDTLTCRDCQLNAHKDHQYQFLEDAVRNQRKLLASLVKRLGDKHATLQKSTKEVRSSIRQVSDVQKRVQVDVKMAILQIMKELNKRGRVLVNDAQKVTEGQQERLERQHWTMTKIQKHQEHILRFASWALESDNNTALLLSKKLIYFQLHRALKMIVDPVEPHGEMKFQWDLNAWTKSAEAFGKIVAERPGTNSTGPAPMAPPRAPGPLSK

Row | binding result | Binder
1 | binds | FLAG-CUE1,2 D188A (domain or fragment, human, UniProt Q9H4L7 95-347, looked up, SMARCAD1, human, UniProt Q9H4L7, CUE1,2 fragment S95-N347; source: E. coli BL-21 CodonPlus (DE3)-RIL, purified (Ni-NTA, Ulp1, Mono Q if required)) SSDSEDVVSPNCSNTVQEKTFNKDTVIIVSEPSEDEESQGLPTMARRNDDISELEDLSELEDLKDAKLQTLKELFPQRSDNDLLKLIESTSTMAGAIAAALLMFGDAGGGPRKRKLSSSSEPYEEDEFNDDQSIKKTRLDHGEESNESAESSSNWEKQESIVLKLQKEFPNFDKQELREVLKEHEWMYTEALESLKVFAEDQDMQYVSQSEVPNGKEVSSRSQNYPKNATKTKLKQKFSMKAQNGFNKKRKKN
2 | binds | FLAG-CUE1,2 L195A (domain or fragment, human, UniProt Q9H4L7 95-347, looked up, SMARCAD1, human, UniProt Q9H4L7, CUE1,2 fragment S95-N347; source: E. coli BL-21 CodonPlus (DE3)-RIL, purified (Ni-NTA, Ulp1, Mono Q if required)) SSDSEDVVSPNCSNTVQEKTFNKDTVIIVSEPSEDEESQGLPTMARRNDDISELEDLSELEDLKDAKLQTLKELFPQRSDNDLLKLIESTSTMDGAIAAAALMFGDAGGGPRKRKLSSSSEPYEEDEFNDDQSIKKTRLDHGEESNESAESSSNWEKQESIVLKLQKEFPNFDKQELREVLKEHEWMYTEALESLKVFAEDQDMQYVSQSEVPNGKEVSSRSQNYPKNATKTKLKQKFSMKAQNGFNKKRKKN
3 | binds | FLAG-CUE1,2 L196A (domain or fragment, human, UniProt Q9H4L7 95-347, looked up, SMARCAD1, human, UniProt Q9H4L7, CUE1,2 fragment S95-N347; source: E. coli BL-21 CodonPlus (DE3)-RIL, purified (Ni-NTA, Ulp1, Mono Q if required)) SSDSEDVVSPNCSNTVQEKTFNKDTVIIVSEPSEDEESQGLPTMARRNDDISELEDLSELEDLKDAKLQTLKELFPQRSDNDLLKLIESTSTMDGAIAAALAMFGDAGGGPRKRKLSSSSEPYEEDEFNDDQSIKKTRLDHGEESNESAESSSNWEKQESIVLKLQKEFPNFDKQELREVLKEHEWMYTEALESLKVFAEDQDMQYVSQSEVPNGKEVSSRSQNYPKNATKTKLKQKFSMKAQNGFNKKRKKN
4 | binds | FLAG-CUE1,2 A192G (domain or fragment, human, UniProt Q9H4L7 95-347, looked up, SMARCAD1, human, UniProt Q9H4L7, CUE1,2 fragment S95-N347; source: E. coli BL-21 CodonPlus (DE3)-RIL, purified (Ni-NTA, Ulp1, Mono Q if required)) SSDSEDVVSPNCSNTVQEKTFNKDTVIIVSEPSEDEESQGLPTMARRNDDISELEDLSELEDLKDAKLQTLKELFPQRSDNDLLKLIESTSTMDGAIGAALLMFGDAGGGPRKRKLSSSSEPYEEDEFNDDQSIKKTRLDHGEESNESAESSSNWEKQESIVLKLQKEFPNFDKQELREVLKEHEWMYTEALESLKVFAEDQDMQYVSQSEVPNGKEVSSRSQNYPKNATKTKLKQKFSMKAQNGFNKKRKKN
5 | binds | FLAG-CUE1,2 E167A (domain or fragment, human, UniProt Q9H4L7 95-347, looked up, SMARCAD1, human, UniProt Q9H4L7, CUE1,2 fragment S95-N347; source: E. coli BL-21 CodonPlus (DE3)-RIL, purified (Ni-NTA, Ulp1, Mono Q if required)) SSDSEDVVSPNCSNTVQEKTFNKDTVIIVSEPSEDEESQGLPTMARRNDDISELEDLSELEDLKDAKLQTLKALFPQRSDNDLLKLIESTSTMDGAIAAALLMFGDAGGGPRKRKLSSSSEPYEEDEFNDDQSIKKTRLDHGEESNESAESSSNWEKQESIVLKLQKEFPNFDKQELREVLKEHEWMYTEALESLKVFAEDQDMQYVSQSEVPNGKEVSSRSQNYPKNATKTKLKQKFSMKAQNGFNKKRKKN
6 | binds | FLAG-CUE1,2 K166A (domain or fragment, human, UniProt Q9H4L7 95-347, looked up, SMARCAD1, human, UniProt Q9H4L7, CUE1,2 fragment S95-N347; source: E. coli BL-21 CodonPlus (DE3)-RIL, purified (Ni-NTA, Ulp1, Mono Q if required)) SSDSEDVVSPNCSNTVQEKTFNKDTVIIVSEPSEDEESQGLPTMARRNDDISELEDLSELEDLKDAKLQTLAELFPQRSDNDLLKLIESTSTMDGAIAAALLMFGDAGGGPRKRKLSSSSEPYEEDEFNDDQSIKKTRLDHGEESNESAESSSNWEKQESIVLKLQKEFPNFDKQELREVLKEHEWMYTEALESLKVFAEDQDMQYVSQSEVPNGKEVSSRSQNYPKNATKTKLKQKFSMKAQNGFNKKRKKN
